From article doi:10.1101/2022.07.16.500195 (bioRxiv, 2022)
Like-named read-outs stand apart in the source and are kept apart here.

B1: PulMCTD (C-terminal domain of PulM, residues 79-161) (domain or fragment, Klebsiella oxytoca)
chain: SPEEPSTVIMREAARHGLTIVRLQPQGSRLSLTVQPADFQALMAWLDALGQAGMTTATLAVTAVAQQPGWVTVNTLVLERSDEK
B2: PulLCTD (C-terminal domain of PulL, residues 312-398) (domain or fragment, Klebsiella oxytoca)
chain: SNAGARPALISRLGALQQIIDDTPGIRLRTLSFDAARNALQLEISAVSSQALEQFSQRARARFRVQTGEMKPRADGIEGRLTLEGNDA

What was measured:
[1] = target: B2; assay: native MS
[2] = target: the molecule itself
AUC + other: NMR = target: the molecule itself; assay: AUC + other: NMR
[3] = target: B1; assay: NMR titration

Binder | binding result [1] | stoichiometry N [2] | stoichiometry N (AUC + other: NMR) | stoichiometry N [3] [PulLCTD per PulMCTD]
B1 | binds | 2 |  | 
B2 |  |  | 2 | 1
